Sequences and labels used below:
B1: Tyrosine-protein phosphatase non-receptor type 1 (Homo sapiens), P18031 (parent)
chain: MEMEKEFEQIDKSGSWAAIYQDIRHEASDFPCRVAKLPKNKNRNRYRDVSPFDHSRIKLHQEDNDYINASLIKMEEAQRSYILTQGPLPNTCGHFWEMVWEQKSRGVVMLNRVMEKGSLKCAQYWPQKEEKEMIFEDTNLKLTLISEDIKSYYTVRQLELENLTTQETREILHFHYTTWPDFGVPESPASFLNFLFKVRESGSLSPEHGPVVVHCSAGIGRSGTFCLADTCLLLMDKRKDPSSVDIKKVLLEMRKFRMGLIQTADQLRFSYLAVIEGAKFIMGDSSVQDQWKELSHEDLEPPPEHIPPPPRPPKRILEPHNGKCREFFPNHQWVKEETQEDKDCPIKEEKGSPLNAAPYGIESMSQDTEVRSRVVGGSLRGAQAASPAKGEPSLPEKDEDHALSYWKPFLVNMCVATVLTAGAYLCYRFLFNSNT
partner: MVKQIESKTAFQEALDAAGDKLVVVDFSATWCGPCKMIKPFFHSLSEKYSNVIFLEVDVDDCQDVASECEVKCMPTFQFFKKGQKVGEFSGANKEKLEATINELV

The variants in the assay derive from B1. Conditions: with thio_human TXN.
Regarding C215A;S216A, the “effect of a mutation on the interaction” value is “disrupting interaction”.

Values taken from IntAct's records for PubMed 24976139.
